Measured values taken from patent US20190360025A1.

Key:
[1] = target: interleukin 6 (IL-6), R&D Systems 206-IL-010 (UniProt P05231); test: SPR (Biacore T200), biotinylated antibody on CAP chip, 1:1 fit
[2] = target: interleukin 6 (IL-6), R&D Systems 206-IL-010 (UniProt P05231); test: t-PLA, buffer; IL-6 1.00E-13 M
[3] = target: interleukin 6 (IL-6), R&D Systems 206-IL-010 (UniProt P05231); test: t-PLA, buffer; IL-6 1.00E-12 M
[4] = target: interleukin 6 (IL-6), R&D Systems 206-IL-010 (UniProt P05231); test: c-PLA, buffer; IL-6 1.00E-08 M
[5] = target: interleukin 6 (IL-6), R&D Systems 206-IL-010 (UniProt P05231); test: SPR, off-rate given by the software, beyond the sensitivity range of the instrument
[6] = target: interleukin 6 (IL-6), R&D Systems 206-IL-010 (UniProt P05231); test: BLI (Octet RED), antibody on protein G sensors, 1:1 global fit
[7] = target: interleukin 6 (IL-6), R&D Systems 206-IL-010 (UniProt P05231); test: c-PLA, buffer; IL-6 1.00E-13 M
[8] = target: interleukin 6 (IL-6), R&D Systems 206-IL-010 (UniProt P05231); test: t-PLA, buffer; IL-6 1.00E-11 M
[9] = target: interleukin 6 (IL-6), R&D Systems 206-IL-010 (UniProt P05231); test: t-PLA, buffer; IL-6 1.00E-10 M
[10] = target: interleukin 6 (IL-6), R&D Systems 206-IL-010 (UniProt P05231); test: c-PLA, buffer; IL-6 1.00E-09 M
[11] = target: interleukin 6 (IL-6), R&D Systems 206-IL-010 (UniProt P05231); test: t-PLA, buffer; IL-6 1.00E-08 M
[12] = target: interleukin 6 (IL-6), R&D Systems 206-IL-010 (UniProt P05231); test: c-PLA, buffer; IL-6 1.00E-10 M
[13] = target: interleukin 6 (IL-6), R&D Systems 206-IL-010 (UniProt P05231); test: SPR, isoaffinity graph
[14] = target: interleukin 6 (IL-6), R&D Systems 206-IL-010 (UniProt P05231); test: t-PLA, buffer; IL-6 1.00E-14 M
[15] = target: interleukin 6 (IL-6), R&D Systems 206-IL-010 (UniProt P05231); test: c-PLA, buffer; IL-6 1.00E-14 M
[16] = target: interleukin 6 (IL-6), R&D Systems 206-IL-010 (UniProt P05231); test: c-PLA, buffer; IL-6 1.00E-11 M
[17] = target: interleukin 6 (IL-6), R&D Systems 206-IL-010 (UniProt P05231); test: c-PLA, buffer; IL-6 1.00E-12 M
[18] = target: interleukin 6 (IL-6), R&D Systems 206-IL-010 (UniProt P05231); test: t-PLA, buffer; IL-6 1.00E-09 M
[19] = target: interleukin 6 (IL-6), R&D Systems 206-IL-010 (UniProt P05231); test: SPR, value from the software's off-rate, beyond the sensitivity range of the instrument
[20] = target: interleukin 6 (IL-6), R&D Systems 206-IL-010 (UniProt P05231); test: SPR (Biacore T200), 1:1 global fit

Sequence of UniProt P05231 (P05231 30-212 limits assumed): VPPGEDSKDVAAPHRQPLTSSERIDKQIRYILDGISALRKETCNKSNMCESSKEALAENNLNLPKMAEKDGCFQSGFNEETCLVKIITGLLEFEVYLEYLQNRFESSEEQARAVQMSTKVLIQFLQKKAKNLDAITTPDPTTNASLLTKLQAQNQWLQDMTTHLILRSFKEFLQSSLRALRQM

Kd [1]: < 4.3 pM
koff [1]: < 1e-05 s⁻¹
kon [1]: 2.3e+06 M⁻¹ s⁻¹
Counts [2]: 2.68e+06
SBR [2]: 1.8
Counts [3]: 1.16e+07
SBR [3]: 8
Counts [4]: 137000
SBR [4]: 7540
koff [5]: 4.65e-07 s⁻¹
Kd [6]: < 2.49 pM
koff [6]: < 1e-06 s⁻¹
kon [6]: 402000 M⁻¹ s⁻¹
Counts [7]: 84.3
SBR [7]: 4.6
Counts [8]: 3.72e+07
SBR [8]: 26
Counts [9]: 3.88e+08
SBR [9]: 267
Counts [10]: 312000
SBR [10]: 17200
Counts [11]: 2.05e+09
SBR [11]: 1410
Counts [12]: 30800
SBR [12]: 1700
Kd [13]: < 5 pM
Counts [14]: 3.03e+06
SBR [14]: 2.1
Counts [15]: 55.2
SBR [15]: 3
Counts [16]: 1980
SBR [16]: 109
Counts [17]: 141
SBR [17]: 7.8
Counts [18]: 3.87e+09
SBR [18]: 2670
Kd [19]: 0.199 pM
Kd [20]: < 4.3 pM
koff [20]: < 1e-05 s⁻¹
kon [20]: 2.33e+06 M⁻¹ s⁻¹
Substance: affinity-purified polyclonal anti-IL-6 antibody (R&D Systems AF-206-NA)
